For three substances, IC50 of inhibition of HPV16 PsV infection of HeLa cells (PsV pretreated with the defensin) results are on record in publication PMC7586039.

The experiment addresses HPV16 pseudovirions (human papillomavirus type 16) (UniProt P03101).
For “RTD-4 (from UniProt P82270 65-76) (peptide)”, the IC50 of inhibition of HPV16 PsV infection of HeLa cells (PsV pretreated with the defensin) came out at 101 µM.
With “Rhesus Theta Defensin-1 (from UniProt P82270 65-76; P82271 65-76) (peptide)”, the IC50 of inhibition of HPV16 PsV infection of HeLa cells (PsV pretreated with the defensin) was 14 µM.
With α-defensin HD5 (peptide) the figure was 26 µM.
